Measurements reported in the RNAGym collection of RNA variant scans (doi:10.1101/gr.219683.116).

B1: mRNA-splicing (parent)
chain: AGUUGCUGCUGGGAGCUCCAGCACAGUGAAAUGGACAGAAGGGCAGAGCAA

Variants of: B1
Experiment: exon inclusion enrichment index; higher = more inclusion; WT1 exon 5 minigene, HEK293
In the case of G34U, the “exon inclusion enrichment index” value is reported as 0.0244.
With C6A U7C C9A U10C G26U U27G the “exon inclusion enrichment index” value was 4.12.
In the case of G5C C6A U7C G8A U10A G48U, the “exon inclusion enrichment index” value is reported as 0.218.
In the case of C6A U7C C9A U10C G12C, the “exon inclusion enrichment index” value is reported as 3.68.
In the case of G5C C6G U7C U10C A37G G38A, the “exon inclusion enrichment index” value is reported as 2.92.
In the case of G5C C6G U7G G8A U10C, the “exon inclusion enrichment index” value is reported as 2.87.
In the case of G5A C6G U7G C9A G13C A14C, the “exon inclusion enrichment index” value is reported as 0.00967.
In the case of G5U G8U C9U A30U A31C, the “exon inclusion enrichment index” value is reported as 0.0725.
With G5A U7C G8A U10C G26C U27A the “exon inclusion enrichment index” value was 2.48.
With G5U G8U C9U C44U A45C the “exon inclusion enrichment index” value was 0.215.
In the case of G5C C6A U7G G8C U10A, the “exon inclusion enrichment index” value is reported as 0.0276.
For G5A C6U U7A G8U C9A G28A A29C, the “exon inclusion enrichment index” value was 0.0311.
In the case of G28U, the “exon inclusion enrichment index” value is reported as 0.0227.
For G5C C6G U7C U10C A37C G38C, the “exon inclusion enrichment index” value was 2.99.
For G5A C6G U7G C9A G34U A35G, the “exon inclusion enrichment index” value was 0.00131.
With G5A C6G U7G C9A G34U A35C the “exon inclusion enrichment index” value was 0.000948.
In the case of G5C C6G U7C U10C A37U G38C, the “exon inclusion enrichment index” value is reported as 2.27.
With G8C C9G the “exon inclusion enrichment index” value was 0.884.
In the case of C6A U7A C9A U10A A40G, the “exon inclusion enrichment index” value is reported as 0.737.
In the case of A23G C24U, the “exon inclusion enrichment index” value is reported as 0.167.
In the case of G33A G34A, the “exon inclusion enrichment index” value is reported as 0.0101.
For U32C G33A, the “exon inclusion enrichment index” value was 0.0354.
In the case of U4A G5A C6A U7C G8A U10A, the “exon inclusion enrichment index” value is reported as 0.0681.
For G5C C6U G8C C9U U10C A31U U32A, the “exon inclusion enrichment index” value was 0.179.
With G5C C6U G8C C9U U10C U27G G28C the “exon inclusion enrichment index” value was 1.04.
With U17C C18U the “exon inclusion enrichment index” value was 1.34.
In the case of C6A U7A C9A U10A A45U, the “exon inclusion enrichment index” value is reported as 1.14.
With G5A U7C G8A U10C A37G G38C the “exon inclusion enrichment index” value was 2.62.
In the case of G5C C6A U7C G8A U10A C44G A45G, the “exon inclusion enrichment index” value is reported as 0.00762.
For C6A U7A C9A U10A G28C A29C, the “exon inclusion enrichment index” value was 0.683.
For G5C C6A U7C G8A U10A G13C, the “exon inclusion enrichment index” value was 0.0242.
With A35G C36A the “exon inclusion enrichment index” value was 0.0734.
With A35G C36G the “exon inclusion enrichment index” value was 0.00669.
For G5C U7C U10C, the “exon inclusion enrichment index” value was 0.696.
In the case of C6A U7A C9A U10A G33A G34C, the “exon inclusion enrichment index” value is reported as 0.0943.
For G5C C6A U7C G8A U10A A45C G46A, the “exon inclusion enrichment index” value was 0.0623.
With G5C C6G U7C U10C U17C the “exon inclusion enrichment index” value was 3.43.
With G5C C6G U7C U10C U17G the “exon inclusion enrichment index” value was 1.86.
In the case of G5A U7C G8A U10C C36A, the “exon inclusion enrichment index” value is reported as 1.85.
For G5A U7C G8A U10C C36U, the “exon inclusion enrichment index” value was 0.719.
For G5U G8U C9U G41U G42C, the “exon inclusion enrichment index” value was 0.47.
With C6A U7A C9A U10A C16G U17A the “exon inclusion enrichment index” value was 0.533.
For C6A U7A C9A U10A C16G U17C, the “exon inclusion enrichment index” value was 0.22.
With A45G G46U the “exon inclusion enrichment index” value was 0.121.
In the case of C6A U7C C9A U10C G41A G42U, the “exon inclusion enrichment index” value is reported as 2.71.
In the case of G5A C6U U7A G8U C9A G34A A35C, the “exon inclusion enrichment index” value is reported as 0.0538.
In the case of G5A C6G U7G C9A A14U G15A, the “exon inclusion enrichment index” value is reported as 0.000793.
In the case of G5A C6G U7G C9A A30G A31G, the “exon inclusion enrichment index” value is reported as 0.00115.
In the case of G5A U7C G8A U10C U32A G33A, the “exon inclusion enrichment index” value is reported as 1.05.
In the case of G5C C6G U7A G8U C9A, the “exon inclusion enrichment index” value is reported as 1.06.
In the case of U3C U4C C6A U7A C9A U10A, the “exon inclusion enrichment index” value is reported as 1.44.
For G5A C6U U7A G8U C9A G21U C22A, the “exon inclusion enrichment index” value was 0.0356.
With G5C C6A U7C G8A U10A G33U the “exon inclusion enrichment index” value was 0.0519.
With G5C C6A U7C G8A U10A G46C A47G the “exon inclusion enrichment index” value was 0.199.
For G5C C6A U7C G8A U10A G46C A47C, the “exon inclusion enrichment index” value was 0.209.
In the case of G5A U7C G8A U10C G41A G42U, the “exon inclusion enrichment index” value is reported as 1.8.
With C6A U7C C9U U10G the “exon inclusion enrichment index” value was 0.298.
In the case of A40C G41A, the “exon inclusion enrichment index” value is reported as 0.0344.
In the case of C6A U7G C9A, the “exon inclusion enrichment index” value is reported as 0.123.
In the case of C24G A25G, the “exon inclusion enrichment index” value is reported as 0.0325.
With C6A U7A C9A U10A G13A A14G the “exon inclusion enrichment index” value was 1.21.
For U3G U4C G5U G8U C9U, the “exon inclusion enrichment index” value was 0.0275.
For G5A C6U U7A G8U C9A C44U A45U, the “exon inclusion enrichment index” value was 0.0242.
In the case of C6A U7A C9A U10A A39G A40U, the “exon inclusion enrichment index” value is reported as 0.0506.
With C6A U7A C9A U10A G15U C16U the “exon inclusion enrichment index” value was 0.36.
With U4A C6G U7C U10C the “exon inclusion enrichment index” value was 0.262.
For C6A U7A C9A U10A G26A, the “exon inclusion enrichment index” value was 1.08.
With G41C the “exon inclusion enrichment index” value was 0.866.
In the case of G2U U3A G5C C6U G8C C9U U10C, the “exon inclusion enrichment index” value is reported as 3.36.
For G5C C6A U7C G8A U10A C36G A37C, the “exon inclusion enrichment index” value was 0.0273.
For G5A C6G U7G C9A A25U, the “exon inclusion enrichment index” value was 0.00086.
In the case of G5C C6A U7C G8A U10A C44A A45U, the “exon inclusion enrichment index” value is reported as 0.339.
With G5A C6U U7A G8U C9A G38A A39G the “exon inclusion enrichment index” value was 0.0704.
For G5A C6U U7A G8U C9A G38A A39C, the “exon inclusion enrichment index” value was 0.0573.
For G5A U7C G8A U10C G26A U27A, the “exon inclusion enrichment index” value was 2.4.
With G5U G8U C9U C16A the “exon inclusion enrichment index” value was 0.141.
With G5A C6U U7A G8U C9A A23G C24U the “exon inclusion enrichment index” value was 0.0127.
With G5C C6A U7C G8A U10A U32A the “exon inclusion enrichment index” value was 0.0862.
For G5U G8A C9A, the “exon inclusion enrichment index” value was 0.204.
In the case of G5C C6A U7C G8A U10A C18U C19U, the “exon inclusion enrichment index” value is reported as 0.00236.
For C6A U7C C9A U10C G26C U27G, the “exon inclusion enrichment index” value was 3.92.
For G5A C6G U7G C9A A39C A40G, the “exon inclusion enrichment index” value was 0.0112.
With G2C U3C G5C C6A U7C G8A U10A the “exon inclusion enrichment index” value was 0.119.
